# Results published in PMC10615762.
# Target: Fusion protein of Nipah virus (F-clamp) (Nipah virus)
# Test: SEC
substance,measurement,value
Fusion protein of Nipah virus (F-clamp),stoichiometry N,3
